{
  "source": "paper PMC10249358",
  "about": "(2023)",
  "parents": {"B1": {"name": "FAM83G(111–126) peptide displayed on M13 phage [human] / GST-tagged merlin FERM domain [human] (parent complex)", "chain 1": "AEPLPSLEYWPQKSDR", "chain 2": "FTVRIVTMDAEMEFNCEMKWKGKDLFDLVCRTLGLRETWFFGLQYTIKDTVAWLKMDKKVLDHDVSKEEPVTFHFLAKFYPENAEEELVQEITQHLFFLQVKKQILDEKIYCPPEASVLLASYAVQAKYGDYDPSVHKRGFLAQEELLPKRVINLYQMTPEMWEERITAWYAEHRGRARDEAEMEYLKIAQDLEMYGVNYFAIRNKKGTELLLGVDALGLHIYDPENRLTPKISFPWNEIRNISYSDKEFTIKPLDKKIDVFKFNSSKLRVNKLILQLCIGNHDLFMRRRK"}, "B2": {"name": "NOP53(192–207) peptide displayed on M13 phage [human] / GST-tagged merlin FERM domain [human] (parent complex)", "chain 1": "FYDLWASDNPLDRPLV", "chain 2": "B1 chain 2"}},
  "data": [
    {"variants_of": "B1", "experiment": "clonal phage ELISA; ratio of A450 on immobilized GST-merlin to A450 on GST, normalized to 100% of WT peptide; no-peptide phage control est. 29%; read off a plot", "units": {"percent of parent": "% binding"}, "values": [
      {"variant": "chain 1 AEPLPSLEYWPQKSDA", "percent of parent": "~99"},
      {"variant": "chain 1 AEPKPSLEYWPQKSDR", "percent of parent": "~86"},
      {"variant": "chain 1 AEPLPSLEYWPAKSDR", "percent of parent": "~76"},
      {"variant": "chain 1 AEPLPSLAYWPQKSDR", "percent of parent": "~17"},
      {"variant": "chain 1 AEPLPSLEYWPQKSAR", "percent of parent": "~110"},
      {"variant": "chain 1 AEPLPSLEYWPQKADR", "percent of parent": "~98"},
      {"variant": "chain 1 AEPLPSLEYWPQASDR", "percent of parent": "~91"},
      {"variant": "chain 1 AEPLPSLEYWPQDSDR", "percent of parent": "~81"},
      {"variant": "chain 1 AEPLPSLEYWKQKSDR", "percent of parent": "~19"},
      {"variant": "chain 1 AEPLPELEYWPQKSDR", "percent of parent": "~88"},
      {"variant": "chain 1 AEPLPSKEYWPQKSDR", "percent of parent": "~84"},
      {"variant": "chain 1 AEPLKSLEYWPQKSDR", "percent of parent": "~68"},
      {"variant": "chain 1 AEPLPSLEKWPQKSDR", "percent of parent": "~21"},
      {"variant": "chain 1 AEPLPSLEDWPQKSDR", "percent of parent": "~13"},
      {"variant": "chain 1 AEPLPSLEYKPQKSDR", "percent of parent": "~23"}
    ]},
    {"variants_of": "B2", "experiment": "clonal phage ELISA; ratio of A450 on immobilized GST-merlin to A450 on GST, normalized to 100% of WT peptide; no-peptide phage control est. 32%; read off a plot", "units": {"percent of parent": "% binding"}, "values": [
      {"variant": "chain 1 FYDKWASDNPLDRPLV", "percent of parent": "~29"},
      {"variant": "chain 1 FYDLWASDNPLDRPKV", "percent of parent": "~16"},
      {"variant": "chain 1 FYDLWKSDNPLDRPLV", "percent of parent": "~59"},
      {"variant": "chain 1 FYDLWASDNKLDRPLV", "percent of parent": "~26"},
      {"variant": "chain 1 FYDLWASDNPKDRPLV", "percent of parent": "~14"},
      {"variant": "chain 1 FYDLWASDNPLDRKLV", "percent of parent": "~50"},
      {"variant": "chain 1 FYDLWASDNPLDRPLK", "percent of parent": "~61"},
      {"variant": "chain 1 FYKLWASDNPLDRPLV", "percent of parent": "~33"},
      {"variant": "chain 1 FYALWASDNPLDRPLV", "percent of parent": "~29"},
      {"variant": "chain 1 FYDLWAADNPLDRPLV", "percent of parent": "~120"},
      {"variant": "chain 1 FYDLWASDNPLARPLV", "percent of parent": "~24"},
      {"variant": "chain 1 FYDLWASDNPLDAPLV", "percent of parent": "~97"},
      {"variant": "chain 1 FYDLWASDAPLDRPLV", "percent of parent": "~93"},
      {"variant": "chain 1 FKDLWASDNPLDRPLV", "percent of parent": "~16"},
      {"variant": "chain 1 FYDLKASDNPLDRPLV", "percent of parent": "~31"},
      {"variant": "chain 1 FYDLWASANPLDRPLV", "percent of parent": "~110"},
      {"variant": "chain 1 FYDLWASKNPLDRPLV", "percent of parent": "~94"},
      {"variant": "chain 1 KYDLWASDNPLDRPLV", "percent of parent": "~29"}
    ]}
  ]
}
